What all share (settings): tags: NLS, 6xHis
One data set concerns the target T1, ZM6.22v2(I7) (artificial).
T1 chain: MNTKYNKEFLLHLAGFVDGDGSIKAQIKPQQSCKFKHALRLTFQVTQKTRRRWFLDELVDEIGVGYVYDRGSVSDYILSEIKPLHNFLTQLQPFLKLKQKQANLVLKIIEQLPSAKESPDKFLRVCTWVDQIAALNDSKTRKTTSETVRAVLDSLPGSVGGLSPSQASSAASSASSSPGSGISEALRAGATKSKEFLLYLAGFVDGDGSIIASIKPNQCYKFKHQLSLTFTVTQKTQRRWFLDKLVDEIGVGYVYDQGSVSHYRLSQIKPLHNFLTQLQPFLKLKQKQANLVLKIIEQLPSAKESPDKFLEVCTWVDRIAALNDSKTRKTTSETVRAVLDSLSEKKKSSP
The experiment in a line: cell_activity; yeast 37 C; 30 C: 0. As for the experimental part: (§1) A 3 mL culture of selective media (MP Biomedical) was inoculated with a single colony of the yeast screening strain and grown at 30° C. overnight. On the following day, a 50 ml YPD culture (MP Biomedical) was started with 2 ml of the overnight culture and grown at 30° C. overnight. On the following day, the cells were harvested by centrifugation at 4000 rpm. The cells were resuspended in 100 ml ice cold water and centrifuged again. The cells were then washed in 1.2 M sorbitol, followed by treatment with 2 ml of 10 mM Tris pH 8.0, 1 mM EDTA, 100 mM Lithium acetate, 10 mM DTT, 0.6M sorbitol for 30 minutes at 30° C. with shaking. The cells were recovered by centrifugation, washed in 40 ml 1.2M sorbitol and finally resuspended in 250 microliters of 1.2M sorbitol. 50 microliter aliquots were transferred to test tubes on ice. Up to 5 microliters of DNA (100-500 nanograms) were added. The suspension was transferred to a 0.2 cm electroporation cuvette, on ice. Electroporation was performed with a pulse charge at 1.5 kV, 200 ohms, 25 microF (pulse time of 5 milliseconds). 1 mL YPD media (MP Biomedical) was added and the cells were allowed to recover at 30° C. for 1-2 hr. The cells were centrifuged, resuspended in 100 uL 1M sorbitol and plated on selective media lacking leucine and containing 2% galactose. The resulting yeast colonies were incubated at various temperatures ranging from 22 to 37 degrees Celsius for 7-10 days. I-CreI and meganucleases derived from it have maximal activity at or above 37 degrees Celsius. Screening was performed at a range of temperatures from 22 to 37 degrees in order to observe increases in activity at lower temperatures which are relevant to certain biological systems (eg. plant cells, plant cell cultures, etc). At that time the red/white sectoring phenotype, indicative of meganuclease activity was observed. Colonies with increased white sectoring over the parental meganuclease (indicating colonies expressing a meganuclease with increased meganuclease activity), also referred to as “hits” and sometimes completely white, were isolated for further analysis.
(§2) A total of 13 ZM6.22v2 variants with increased activity were confirmed in the yeast system (as described in Example 6). Increased activity was observed across a range of temperatures: 28 degrees Celsius, 30 degrees Celsius and 37 degrees Celsius, as shown in Table 16.

The next data set deals with T2, ZM6.22v2 (artificial).
T2 chain: T1 chain with H12Y, R50Q, E57K, R124E, R318Q
The experiment in a line: cell_activity; yeast 37 C; 30 C: 0. The protocol:
as §1, §2

The next data set concerns the target T3, MHP14(03) (artificial).
T3 chain: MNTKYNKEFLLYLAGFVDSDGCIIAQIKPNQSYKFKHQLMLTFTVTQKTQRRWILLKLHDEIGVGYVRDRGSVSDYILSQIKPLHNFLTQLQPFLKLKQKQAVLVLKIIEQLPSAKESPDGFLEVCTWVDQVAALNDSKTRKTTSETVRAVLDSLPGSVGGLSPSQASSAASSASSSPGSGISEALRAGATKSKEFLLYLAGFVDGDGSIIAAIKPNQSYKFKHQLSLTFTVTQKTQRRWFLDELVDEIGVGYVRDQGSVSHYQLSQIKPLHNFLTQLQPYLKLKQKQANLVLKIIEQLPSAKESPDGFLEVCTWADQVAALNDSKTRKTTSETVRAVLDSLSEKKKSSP
The experiment in a line: cell_activity; yeast 37 C; 28 C: 0.5. The protocol:
(§3) A 3 mL culture of selective media (MP Biomedical) was inoculated with a single colony of the yeast screening strain and grown at 30° C. overnight. On the following day, a 50 ml YPD culture (MP Biomedical) was started with 2 ml of the overnight culture and grown at 30° C. overnight. On the following day, the cells were harvested by centrifugation at 4000 rpm. The cells were resuspended in 100 ml ice cold water and centrifuged again. The cells were then washed in 1.2 M sorbitol, followed by treatment with 2 ml of 10 mM Tris pH 8.0, 1 mM EDTA, 100 mM Lithium acetate, 10 mM DTT, 0.6M sorbitol for 30 minutes at 30° C. with shaking. The cells were recovered by centrifugation, washed in 40 ml 1.2M sorbitol and finally resuspended in 250 microliters of 1.2M sorbitol. 50 microliter aliquots were transferred to test tubes on ice. Up to 5 microliters of DNA (100-500 nanograms) were added. The suspension was transferred to a 0.2 cm electroporation cuvette, on ice. Electroporation was performed with a pulse charge at 1.5 kV, 200 ohms, 25 microF (pulse time of 5 milliseconds). 1 mL YPD media (MP Biomedical) was added and the cells were allowed to recover at 30° C. for 1-2 hr. The cells were centrifuged, resuspended in 100 uL 1M sorbitol and plated on selective media lacking leucine and containing 2% galactose. The resulting yeast colonies were incubated at various temperatures ranging from 22 to 37 degrees Celsius for 7-10 days. I-CreI and meganucleases derived from it have maximal activity at or above 37 degrees Celsius. Screening was performed at a range of temperatures from 22 to 37 degrees in order to observe increases in activity at lower temperatures which are relevant to certain biological systems (eg. plant cells, plant cell cultures, etc). At that time the red/white sectoring phenotype, indicative of meganuclease activity was observed. Colonies with increased white sectoring over the parental meganuclease (indicating colonies expressing a meganuclease with increased meganuclease activity), also referred to as “hits” and sometimes completely white, were isolated for further analysis. […]

For a further data set, the target named is T4, MHP14(L14-07) (artificial).
T4 chain: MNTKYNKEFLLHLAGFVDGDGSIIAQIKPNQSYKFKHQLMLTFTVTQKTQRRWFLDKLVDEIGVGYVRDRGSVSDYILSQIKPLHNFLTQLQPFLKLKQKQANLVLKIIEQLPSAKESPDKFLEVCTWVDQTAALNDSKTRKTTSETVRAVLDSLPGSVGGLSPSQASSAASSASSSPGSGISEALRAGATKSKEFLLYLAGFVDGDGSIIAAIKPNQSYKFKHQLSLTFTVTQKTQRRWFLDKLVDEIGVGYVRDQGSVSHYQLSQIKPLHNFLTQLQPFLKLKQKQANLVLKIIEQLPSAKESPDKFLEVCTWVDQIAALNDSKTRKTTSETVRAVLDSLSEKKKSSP
The experiment in a line: cell_activity; yeast 37 C; 28 C: 0.5. As for the experimental part: as §3

For another data set, the target named is T5, MHP14(07) (artificial).
T5 chain: T3 chain with S19G, Q50R, G121K, E244K, G308K, A316V, V319I
In words: cell_activity; yeast 37 C; 28 C: 0.5. The protocol:
as §3

Consider two molecules from patent US20140223606, “COMPOSITIONS AND METHODS COMPRISING SEQUENCES HAVING MEGANUCLEASE ACTIVITY” (PIONEER HI BRED INTERNATIONAL INC, published 2014).

Substitutions are numbered along the chain they refer to.

B1: ZM6.22v2 recognition site (dsDNA)
DNA 1: ATTGCTCTCTCACATACTTTTA
DNA 2: TAAAAGTATGTGAGAGAGCAAT
In the case of B1, the activity with ZM6.22v2(I7) amounted to 2 score 0-4; with ZM6.22v2 it was 1 score 0-4.

B2: MHP14 recognition site (dsDNA)
DNA 1: CAAACAGATTCACGTCAGATTT
DNA 2: AAATCTGACGTGAATCTGTTTG
With B2, the activity with MHP14(03) amounted to 3 score 0-4; with MHP14(L14-07) it was 4 score 0-4; with MHP14(07) it was 2.5 score 0-4.
